The text below walks through data of article PMC6699855 (The Journal of Biological Chemistry, 2019).

“Also recorded” adds a separate entry of the source. Positions of bridges follow the written chain, without caps; N, C: chain ends. Non-standard residues stand in square brackets, D forms with d. Residues, ends and D or L forms follow the SMILES beside them.

Data set [1] deals with human CXCL8 (interleukin-8), recombinant, residues 6–77 (human). The data set is described as follows: SEC; protein alone at 0.1 mg/ml; BioSep SEC-s2000; 50 mM sodium phosphate pH 6.65, 150 mM NaCl; masses from the maker's calibration curve. (In general: Size exclusion chromatography separates by hydrodynamic size, large species first.)
Data set [2] can be described thus: Proteolytic stability in human plasma. It is filed as in vitro ADME. The settings on record: 100 μg in 100 μl human plasma, 37 °C, stopped with 20% TCA; for degradation in human plasma after 18 h: LC-MS/HPLC. How it is done:
The proteolytic stability of full-length Evasin-3 and its variants was tested in pooled human plasma from healthy volunteers (Fig. S12A).
100 μg of Evasin-3 variants were dissolved in 100 μl of normal plasma taken from a healthy volunteer and incubated at 37 °C. At a required time point reaction was stopped by addition of 15 μl of 20% TCA to a 15-μl aliquot of a sample and analyzed by LC-MS.

Data set [3] in a line: pooled human plasma from healthy volunteers. The settings on record: 37 °C, up to 18 h.
Data set [4] deals with CXCL8-induced migration of polymorphonuclear neutrophils. In words: PMN migration assay (chemotaxis chamber). The note with it: 1 nM CXCL8 plus 10 nM variant; human neutrophils, 5-μm membrane, 90 min at 37 °C; n = 10 (Evasin-3), 9 (tEv3 17–56), 5 (tcEv3 16–56 dPG); CXCL8 alone 624 ± 458, control 98 ± 83. It is filed as cell-based. As to the method:
To assess the anti-CXCL8 activity of Evasin-3 variants, polymorphonuclear neutrophil (PMN) migration assays were performed. The addition of 1 nM CXCL8 induced significant migration of PMNs (624 ± 458 PMN/mm^2) compared with controls (98 ± 83 PMN/mm^2) in the absence of chemoattractant (Fig. 6). Migration was inhibited by addition of 10 nM of Evasin-3 (206 ± 203 PMN/mm^2).
Human neutrophils were isolated from the blood of healthy donors as described previously ([57]). Isolated neutrophils were resuspended at (10^6 cells/ml) in RPMI 1640 medium supplemented with 1% fetal calf serum. A 12-well chemotaxis chamber with a 5-μm polycarbonate membrane (Neuroprobe, Gaithersburg, MD) was used to assess the migration of neutrophils toward the chemoattractant CXCL8 (1 nM) in presence or absence of Evasin-3 variants (10 nM). The chemoattractant was added in the lower wells, and the neutrophils (1 × 10^5 cells) were seeded in the upper wells. After incubation of 90 min at 37 °C, the nonmigrated cells were carefully removed, and the membrane was stained with Diff-Quick stain (Eberhard Lehmann GmbH, Berlin, Germany). Migrated cells were visualized by light microscopy, counted manually in three fields of view, and expressed as cells/mm^2. The data were analyzed by GraphPad Prism 8.0 software using one-way analysis of variance statistical test.

The target in data set [5] is human CXCL8 (interleukin-8), recombinant, residues 6–77 (human). The data set is described as follows: NMR titration.
The target in another data set is CXCL8. The settings on record: binding to CXCL8; read-out: Kd value previously measured; cited from earlier work. From the text: In contrast to Evasin-1, where both the N and C termini play a crucial role in chemokine binding ([27], [38]), neither the N nor C terminus of Evasin-3 participate in CXCL8 binding. […] To study the effect of termini on binding, we synthesized two novel CXCL8-binding peptides: linear tEv3 17–56 and cyclic tcEv3 16–56 dPG, both retaining the ICK bundled core of the native protein. The ...

In a further data set the target is T1, human CXCL8 (Homo sapiens, UniProt P10145).
T1 construct: made in house; host or cells: chemical synthesis (no expression host)
T1 sequence (P10145 21-99): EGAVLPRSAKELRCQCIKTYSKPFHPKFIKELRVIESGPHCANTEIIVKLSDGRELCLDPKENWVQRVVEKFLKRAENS
The data set is described as follows: SPR biosensor affinity to immobilized CXCL8. It counts as binding. The note with it: SPR sensorgrams; association 250 s, dissociation 300 s, 30 μl/min; PBS pH 7.4, 0.05% Tween 20. (Surface plasmon resonance follows binding to a sensor surface in real time, without labels.)

Data set [6] has as its target T2, chemically synthetized CXCL8-Biotin (C-terminally biotinylated human CXCL8) (human, UniProt P10145 28-99, biotin at the C-terminus).
T2 construct: also called immobilized human CXCL8; source: chemically synthetized; not shown: biotin, C-terminal, kept
T2 sequence (looked up): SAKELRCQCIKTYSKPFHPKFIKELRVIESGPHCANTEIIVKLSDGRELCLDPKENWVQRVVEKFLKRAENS
The data set is described as follows: SPR. The settings on record: both partners purified.

In data set [7] the target is human CXCL8 (interleukin-8), recombinant, residues 6–77 (human). In words: NMR titration; [15N,13C]CXCL8 (200 μM) titrated with unlabelled met-Evasin-3; 15N-1H HSQC and filtered NOESY; 25 mM NaAc-d3 pH 4.5, 37 °C; equilibrium after up to 1 h.
Data set [8] deals with T3, CXCL8–GAG (fondaparinux) complex (Homo sapiens, UniProt P10145).
T3 construct: human CXCL8 (UniProt: p10145, 6–77); made in house; host or cells: E. coli BL21 (DE3) Star
T3 sequence (P10145 28-99): T2 sequence (looked up)
The data set is described as follows: GAG competition for [15N,13C]CXCL8 binding by NMR. The settings on record: 30 μM met-Evasin-3 added to 25 μM [15N,13C]CXCL8 with fondaparinux (up to 10-fold excess), 25 °C, pH 7.1; 15N-1H HSQC. An excerpt:
To study competition between Evasin-3 and GAGs for CXCL8 binding, [^15N,^13C]CXCL8 was first titrated with increasing concentrations of dalteparin (Fragmin®, Pfizer) and low-molecular-mass heparin with the average molecular mass of 5 kDa. […] Fondaparinux (Arixtra®, GSK), which comprises the five central sulfated sugar units in heparin, has the well-defined composition and the lower molecular mass (1.7 kDa) comparing with Fragmin. For that reason, fondaparinux facilitates collection of NMR spectra of higher quality and was chosen for further NMR titration experiments. […] Observed changes were consistent with results of previous studies describing the interaction of CXCL8 with several heparin oligosaccharides ([29]).
For GAG-binding experiments low-molecular-mass heparin dalteparin (commercial name Fragmin®, Pfizer) and fondaparinux (commercial name Arixtra®, GSK) were purchased from a pharmacy as solutions for injections. 25 μM of [^15N,^13C]CXCL8 was titrated by increasing concentration of aliquots from a stock solution of 5 mg/ml fondaparinux or Fragmin to the final GAG concentration of 0.2 mM at 25 °C, pH 7.1. In the next step, 30 μM of met-Evasin-3 was added to the solution to monitor the displacement of bound fondaparinux and follow Evasin-3–CXCL8 complex formation by a series of 1D proton and ^15N-^1H HSQC spectra.

For the molecule “human CXCL8 (interleukin-8), recombinant, residues 6–77 (natural protein)”, the stoichiometry N in data set [1] turned out to be 2.
On to `CC[C@H](C)[C@H](NC(=O)[C@H](CCCCN)NC(=O)[C@H](Cc1ccc(O)cc1)NC(=O)[C@@H]1CSSC[C@@H]2NC(=O)[C@H](CCC(=O)O)NC(=O)[C@H](CC(N)=O)NC(=O)[C@H](CCC(N)=O)NC(=O)CNC(=O)[C@H](CO)NC(=O)[C@H]([C@@H](C)O)NC(=O)[C@@H]3CSSC[C@H](NC(=O)[C@H](Cc4ccccc4)NC(=O)[C@H](CSSC[C@H](NC(=O)[C@H](CO)NC(=O)[C@@H](NC(=O)[C@@H](NC(=O)[C@H](CC(=O)O)NC(=O)[C@@H](N)Cc4ccccc4)C(C)C)C(C)C)C(=O)N[C@@H](CC(N)=O)C(=O)N[C@@H](CCCCN)C(=O)N[C@@H](CC(N)=O)C(=O)N3)NC(=O)CNC(=O)[C@H](CCC(=O)O)NC(=O)[C@@H]3CCCN3C2=O)C(=O)NCC(=O)N[C@@H](CC(C)C)C(=O)N[C@@H](CC(C)C)C(=O)NCC(=O)N[C@@H](CCC(N)=O)C(=O)N[C@@H](CC(N)=O)C(=O)N[C@@H](CCCCN)C(=O)N[C@@H](CCCCN)C(=O)NCC(=O)N[C@@H](Cc2c[nH]cn2)C(=O)N1)C(=O)N[C@H](C(=O)NCC(=O)N[C@@H](CC(N)=O)C(=O)O)[C@@H](C)CC` [tEv3 17–56] (H-FDVVSCNKNCTSGQNECPEGCFCGLLGQNKKGHCYKIIGN-OH; disulfide 6-21, 10-23, 17-34), for which the “degradation in human plasma after 18 h” value in data set [2] is reported as “equally high proteolytic stability”.
Consider “LVSTIESRTSGDGADNFDVVSCNKNCTSGQNECPEGCFCGLLGQNKKGHCYKIIGNLSGEPPVVRR”, for which the cleaved bond entry in [3] is given as “Arg65-Arg66, 2 h; also recorded: V64-Arg65, 2 h”.
Turning to “cyclo(CFCGLLGQNKKGHCYKIIGN[dP]GNFDVVSCNKNCTSGQNECPEG) (disulfide 1-29, 3-33, 14-40) [tcEv3 16–56 dPG]”, the “degradation in human plasma after 18 h” value in data set [2] was “equally high proteolytic stability”. Moreover, the “PMN migration in presence of Evasin-3 variant” value in [4] is listed as 160 ± 65 PMN/mm^2.
Take “truncated Evasin-3 (tEv3 17–56) (from UniProt P0C8E8 37-76) (peptide)”: the stoichiometry N in [5] stood at 1.

B1: Evasin-3: small salivary chemokine-binding protein from the brown dog tick Rhipicephalus sanguineus (UniProt p0c8e8, 1–66) (protein)
chain: LVSTIESRTSGDGADNFDVVSCNKNCTSGQNECPEGCFCGLLGQNKKGHCYKIIGNLSGEPPVVRR
Turning to B1, the Kd on CXCL8 was 0.43 nM. Moreover, the “degradation in human plasma after 2 h” value in data set [2] (2 h, LC-MS) is listed as “degraded nearly quantitatively”. The “degradation in human plasma after 18 h” value in data set [2] is listed as “only ΔC2 could be detected”. Further, the “PMN migration in presence of Evasin-3 variant” value in data set [4] is listed as 206 ± 203 PMN/mm^2. Besides, in the data set with human CXCL8, the “association and dissociation kinetics compared with truncated variants” value was “slower association and dissociation kinetics”.
Molecule cyclo(NFDVVSCNKNCTSGQNECPEGCFCGLLGQNKKGHCYKIIGN[dP]G) (ends not checked) [truncated cyclic Evasin-3 16–56 with a D-Pro-Gly turn (tcEv3 16–56 dPG)] registered a Kd in data set [6] of 13 nM.
FDVVSCNKNCTSGQNECPEGCFCGLLGQNKKGHCYKIIGN [truncated Evasin-3 (tEv3 17–56)] registered an equilibrium dissociation constant (Kd) in data set [6] of 27 nM.

B2: met-Evasin-3 (Evasin-3 1–66 with an N-terminal methionine) (natural protein)
chain: MLVSTIESRTSGDGADNFDVVSCNKNCTSGQNECPEGCFCGLLGQNKKGHCYKIIGNLSGEPPVVRR
On to B2, for which, in data set [7], the stoichiometry N was determined as 1. Also, the “effect on GAG binding of CXCL8” value in data set [8] is recorded as “completely abolished GAG binding”.

One may read the stoichiometry N as the number of molecules, sites or subunits per partner or assembly. As usually defined, the Kd is the free concentration of one partner at which half of the binding sites on the other are occupied at equilibrium, for simple one-to-one binding.
